Changes are numbered by the printed parent chain. [ ]: non-standard residue; d: D form. Nle = CCCC[C@H](N)C(=O)O

Data on eleven molecules can be found in patent US7888315B2, “Use of aspartic proteases in cosmetics and therapeutics” (L'Oreal, priority 2002, dated 2011).

Series [1] has as its system corneodesmosin. The series can be described thus: Degradation of corneodesmosin extracted from human stratum corneum. It counts as biochemical. Conditions: for % Residual corneodesmosin T24 h/T0*100 / Standardized corneodesmosin T24 h / Standardized corneodesmosin T0: stratum corneum acetone powder; for % Residual corneodesmosin T24 h/T0*100 / Standardized corneodesmosin T24 h: acetate buffer pH 5, 30° C.; for Standardized corneodesmosin T0: acetate buffer pH 5, T0. On the procedure:
Corneodesmosin is a marker for desquamation since it is involved in corneocyte cohesion at corneodesmosomes. The more the protein is degraded, the more significant is the detachment of the corneocytes. Corneodesmosin degradation is therefore a key step of desquamation.
The test used in this study therefore consists in following this degradation in the presence of the test substance.
Acetone powders are prepared using stripping varnish (Mehul B, Bernard D, Simonetti L, Bernard M A, Schmidt R: Identification and cloning of a new calmodulin-like protein from human epidermis. J Biol Chem 275: […], 2000), taken from the lower parts of the legs of volunteers with dry skin. Aliquot fractions of 2 mg of stratum corneum powder are introduced separately into Eppendorf tubes, and then immersed in the test solutions in a proportion of 100 μl/mg. The solutions are prepared in acetate buffer, pH 5. A control without protease is prepared in parallel in order to evaluate the natural degradation of corneodesmosin. For each test, three samples are prepared. The samples, trials and control, are incubated at 30° C., with stirring for 24 hours.
The proteins are extracted with complete Laemmli buffer. They are assayed by the Bradford method (Bio-Rad® kit). The concentration of each sample is adjusted so as to allow comparison of the samples. The polypeptides are separated by SDS-PAGE electrophoresis on a 15% acrylamide gel, and then transferred onto a PVDF membrane. Immunodetection with a solution of anti-corneodesmosin antibody used at 1/12 500 and of secondary antibody coupled to peroxidase makes it possible to visualize the corneodesmosin. The bands detected by chemiluminescence are quantified using the Quantity One® program from the company Biorad. The membranes are then stained with amido-black, and then scanned. In addition, the keratins, which are major proteins of corneocyte extracts, are quantified in order to verify the adjustment to 0.6 mg/ml of all the samples.
A positive control for degradation (+) is prepared using 5 mM of EDTA. A trial is carried out in the presence of 60 μg of activated SASPase. A negative control represents the natural degradation of corneodesmosin under the operating conditions of the test.

In series [2] the target is T1, activated SASPase (SEQ ID NO: 6) (Homo sapiens, UniProt Q53RT3).
T1 construct: GST (N, cleaved yes); made in house; host or cells: E. coli BL21 (DE3)
T1 sequence (Q53RT3 189-326): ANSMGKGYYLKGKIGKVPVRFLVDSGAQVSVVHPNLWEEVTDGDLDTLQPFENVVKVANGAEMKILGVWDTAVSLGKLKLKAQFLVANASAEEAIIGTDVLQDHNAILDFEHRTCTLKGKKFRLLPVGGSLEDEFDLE
The series can be described thus: Effect of retropepsin inhibitors on the caseinolytic activity of the activated SASPase. The series is classed as biochemical. Particulars: activated SASPase in 0.1 M acetate buffer pH 5.5 with DMSO, pre-incubated 1 hour at 4° C., Enzchek casein, 37° C., FIG. 3. On the procedure:
10 μl of activated SASPase (SEQ ID NO: 6) that have been autoactivated (approximately 3 mg/ml) are added to 200 μl of 0.1 M acetate buffer, pH 5.5, containing 20 μl of DMSO with retropepsin inhibitors. A control assay is carried out under the same conditions in the absence of inhibitor.
The mixture is pre-incubated at 4° C. for 1 hour, and the substrate, casein, sold under the name Enzchek® by the company Molecular Probes, is then added in sufficient amount to obtain the concentration recommended by the supplier, the solutions having been heated to 37° C. beforehand.
The casein hydrolysis is followed by measuring the fluorescence on a Biolumin® plate reader sold by the company Molecular Probes, using the excitation/emission couple: 485/535 nm.

The target in series [3] is T2, SASPase (GST-C27) (Homo sapiens, UniProt Q53RT3).
T2 construct: made in house; host or cells: E. coli BL21 (DE3)
T2 sequence (Q53RT3 85-343): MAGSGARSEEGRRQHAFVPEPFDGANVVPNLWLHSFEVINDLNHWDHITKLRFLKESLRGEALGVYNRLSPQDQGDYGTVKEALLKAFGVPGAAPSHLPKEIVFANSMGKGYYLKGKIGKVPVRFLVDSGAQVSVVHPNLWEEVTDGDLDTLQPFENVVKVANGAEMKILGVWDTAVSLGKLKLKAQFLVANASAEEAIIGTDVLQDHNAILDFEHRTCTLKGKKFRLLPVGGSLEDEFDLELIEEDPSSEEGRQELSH
The experiment in a line: Hydrolysis of quenched Abz/(NO2)Tyr peptide substrates by the SASPase. It counts as biochemical. The method, then: The peptide substrate considered (SEQ ID NO: 31, SEQ ID NO: 32, SEQ ID NO: 33, SEQ ID NO: 34 or SEQ ID NO: 35) quenched using the Abz/(NO2)Tyr fluorescent system is used at 100 μM in DMSO, and then 10 μl of this stock substrate solution are added per 100 μl of 0.1 M acetate buffer, pH 5.00.
10 μg of GST-C27 (fusion protein at 1 mg/ml in PBS) are added. Incubation is carried out at 37° C. The fluorescence is read at 340/450 nm on a Biolumin plate reader at various times.

Series [4] concerns oxidized beta-chain of insulin. The experiment in a line: Hydrolysis of the oxidized beta-chain of insulin followed by HPLC. It counts as biochemical. The method, then: The oxidized beta-chain of insulin (Sigma) is used as substrate. The concentration is 50 μg in 1.5 ml of 0.1 M acetate buffer, pH 5.0. 50 μl of 12 kD SASPase (SEQ ID NO: 6) (approximately 1 mg/ml) purified by gel filtration are added so as to initialize the hydrolysis. Controls without enzyme or without substrate are used. Over time (1 h to 24 h at 37° C.), HPLCs are performed in order to follow the hydrolysis. The peaks that appear rapidly correspond to the main hydrolysis sites and those that only appear after 24 h correspond to the secondary sites. The peaks are collected after they have been fractionated, and are N-terminal sequences (EDMAN sequencing, Pasteur Institute).

For series [5], the system named is casein. The series can be described thus: Influence of pH on the proteolytic activity of SASPase (Enzchek casein substrate). It counts as biochemical. The method, then:
10 μl of GST-SASPase Δ 1-84 fusion proteins (approximately 3 mg/ml) obtained in example II are incubated in 200 μl of 0.1 M acetate buffer, adjusted to various pH values in the presence of the casein substrate sold under the name Enzchek® by the company Molecular Probes, and used at the concentrations recommended by the supplier.
Each assay is repeated three times.
After incubation at 37° C. for 20 hours, the fluorescence is measured on a plate reader sold under the name Biolumin® by the company Molecular Probes, using the excitation/emission couple: 485/535 nm.

Series [6] has as its system SASPase C27 (autocleavage). The experiment in a line: Autocleavage of the SASPase C27 and of its mutants (SDS-PAGE). It counts as biochemical, human. Conditions: fusion protein in 1 M acetate buffer pH 4.5, 37° C., SDS-PAGE over time. The method, then: The SASPase sequence SEQ ID NO: 5 is modified at aspartic acid No. 212, i.e. on its potential active site. To do this, two oligonucleotides are synthesized such that amino acid 212 is substituted either to alanine (mutant A/D), or to glutamic acid (mutant E/D).
The mutated recombinant proteins are produced according to the same protocol as for the wild-type form, SASPase C27; (SEQ ID NO: 4).
Each recombinant protein produced in fusion protein form is then incubated in a 1 M acetate buffer, pH 4.5, at 37° C. Samples are taken over time and are analyzed by SDS-PAGE.

With `O=C(O)CN(CCN(CC(=O)O)CC(=O)O)CC(=O)O` [+control, EDTA, reference compound], in series [1] (24 hours), the “% Residual corneodesmosin T24 h/T0*100” value worked out at 84% and the “Standardized corneodesmosin T24 h” value turned out to be 26685. Moreover, in series [1], the “Standardized corneodesmosin T0” value is 31657.
Ac-Leu-Leu-Met-aldehyde [RP2]: in series [2], the “kinetics for casein hydrolysis compared with the control” value is “lower than the control”.
The same measure, in the same setting: in the case of “Ac-Leu-Leu-Nle-aldehyde (Ac-Leu-Leu-[Nle]-aldehyde) [RP3]” it was “significantly higher”.
Consider Ac-Leu-Val-Phe-aldehyde [RP1], for which, in series [2], the “kinetics for casein hydrolysis compared with the control” value is on record as “lower than the control”.
With “EFDLDLIEED (listed as Homo sapiens) [SEQ ID NO: 32]”, the “effect of the peptide substrate on the SASPase” value in series [3] was “activator effect”.
With “EFDLELIEED (listed as Homo sapiens) [SEQ ID NO: 31]”, the “effect of the peptide substrate on the SASPase” value in series [3] is recorded as “activator effect”. In addition, the “hydrolysis of the peptide substrate by the SASPase” value in series [3] (0.1 M acetate buffer pH 5.00, 10 μg GST-C27, 37° C., fluorescence 340/450 nm, FIG. 5) was “effectively hydrolyzed”.

B1: SASPase: novel aspartic acid protease from human keratinocytes, sequence SEQ ID NO: 5; in b201 and b239 the word covers the form tested (protein, listed as Homo Sapiens)
chain: MGSPGASLGIKKALQSEQATALPASAPAVSQPTAPAPSCLPKAGQVIPTLLREAPFSSVIAPTLLCGFLFLAWVAAEVPEESSRMAGSGARSEEGRRQHAFVPEPFDGANVVPNLWLHSFEVINDLNHWDHITKLRFLKESLRGEALGVYNRLSPQDQGDYGTVKEALLKAFGVPGAAPSHLPKEIVFANSMGKGYYLKGKIGKVPVRFLVDSGAQVSVVHPNLWEEVTDGDLDTLQPFENVVKVANGAEMKILGVWDTAVSLGKLKLKAQFLVANASAEEAIIGTDVLQDHNAILDFEHRTCTLKGKKFRLLPVGGSLEDEFDLELIEEDPSSEEGRQELSH
For B1, the “insulin-degrading activity after heat denaturation” value in series [4] (heat denaturation 95° C., 10 min) is given as “abolishes its insulin-degrading activity”. Besides, the “activity in phosphate buffer” value in series [5] (0.1 M phosphate buffer of pH 6 to 7.5, assays not shown) is given as “only a weak residual activity”. Also, the “optimal pH of enzymatic activity” value in series [5] (GST-SASPase Δ 1-84 fusion protein, 0.1 M acetate buffer, 37° C., 20 hours, FIG. 2) worked out at 5 pH.

B2: activated SASPase: truncated 12 kD activated form of the aspartic acid protease SASPase, sequence SEQ ID NO: 6 (protein, listed as Homo Sapiens)
chain: T1 sequence (Q53RT3 189-326)
Consider B2, for which the “percentage of residual corneodesmosin compared with the controls” value in series [1] (60 μg of activated SASPase, 24 hours) is reported as “significant decrease”. In addition, in series [1] (24 hours), the “% Residual corneodesmosin T24 h/T0*100” value was determined as 75% and the “Standardized corneodesmosin T24 h” value was 24918. The “Standardized corneodesmosin T0” value in series [1] was determined as 33107. For the same molecule, in series [4] (0.1 M acetate buffer pH 5.0, 37° C., 1 h to 24 h), the insulin-degrading activity result is reported as “capable of degrading insulin”.

B3: (A/D): SASPase mutant, aspartic acid No. 212 substituted to alanine (protein, UniProt Q53RT3 191-326, looked up, variant D212A)
Retroviral-like aspartic …: SMGKGYYLKGKIGKVPVRFLVASGAQVSVVHPNLWEEVTDGDLDTLQPFENVVKVANGAEMKILGVWDTAVSLGKLKLKAQFLVANASAEEAIIGTDVLQDHNAILDFEHRTCTLKGKKFRLLPVGGSLEDEFDLE
For B3, in series [6], the autocleavage / autoactivation entry is on record as “do not autoactivate”.

B4: (E/D): SASPase mutant, aspartic acid No. 212 substituted to glutamic acid (protein, UniProt Q53RT3 191-326, looked up, variant D212E)
Retroviral-like aspartic …: B3 Retroviral-like aspartic … with A22E
B4: the autocleavage / autoactivation entry in series [6] is “do not autoactivate”.

B5: GST-SASPase C27: recombinant fusion protein of glutathione S-transferase with truncated SASPase Δ 1-84 (SEQ ID NO: 4) (protein, listed as Homo Sapiens)
chain: T2 sequence (Q53RT3 85-343)
As for B5, the autocleavage / autoactivation result in series [6] is on record as “autocleavage”.
